The values that follow come from patent publication US20200241008.

T1: indicator molecule containing the cleavable sequence (GPQGIFGQ) with a terminal biotin group connected via a polyethylene glycol spacer/linker, intact
T1 chain: GPQGIFGQ

B1: MMP12 (Enzo) (protein)
chain: GPVWRKHYITYRINNYTPDMNREDVDYAIRKAFQVWSNVTPLKFSKINTGMADILVVFARGAHGDFHAFDGKGGILAHAFGPGSGIGGDAHFDEDEFWTTHSGGTNLFLTAVHEIGHSLGLGHSSDPKAVMFPTYKYVDINTFRLSADDIRGIQSLYG
B2: MMP1 (Enzo) (protein)
chain: FVLTEGNPRWEQTHLTYRIENYTPDLPRADVDHAIEKAFQLWSNVTPLTFTKVSEGQADIMISFVRGDHRDNSPFDGPGGNLAHAFQPGPGIGGDAHFDEDERWTNNFREYNLHRVAAHELGHSLGLSHSTDIGALMYPSYTFSGDVQLAQDDIDGIQAIYGRSQNPVQP
B3: MMP7 (Enzo) (protein)
chain: YSLFPNSPKWTSKVVTYRIVSYTRDLPHITVDRLVSKALNMWGKEIPLHFRKVVWGTADIMIGFARGAHGDSYPFDGPGNTLAHAFAPGTGLGGDAHFDEDERWTDGSSLGINFLYAATHELGHSLGMGHSSDPNAVMYPTYGNGDPQNFKLSQDDIKGIQKLYGKRSNSRKK
B4: MMP11 (Enzo) (protein)
chain: FVLSGGRWEKTDLTYRILRFPWQLVQEQVRQTMAEALKVWSDVTPLTFTEVHEGRADIMIDFARYWHGDDLPFDGPGGILAHAFFPKTHREGDVHFDYDETWTIGDDQGTDLLQVAAHEFGHVLGLQHTTAAKALMSAFYTFRYPLSLSPDDCRGVQHLYGQPWPTVTSRTPALG

In the series the target is T1, indicator molecule containing the ….
As for B1, the reader value at 0.5 µg/ml MMP (lateral flow) turned out to be 1250 reader units.

B2 displayed a reader value at 0.5 µg/ml MMP (lateral flow) of 478 reader units.

The protein B3 came in with a reader value at 0.5 µg/ml MMP (lateral flow) of 373 reader units.

As for B4, the reader value at 0.5 µg/ml MMP (lateral flow) was found to be 280 reader units.
